Literature values, collected in publication PMC5432642.

Target: C3b C3b (Homo sapiens) (UniProt P01024)
Sequence (P01024 566-670): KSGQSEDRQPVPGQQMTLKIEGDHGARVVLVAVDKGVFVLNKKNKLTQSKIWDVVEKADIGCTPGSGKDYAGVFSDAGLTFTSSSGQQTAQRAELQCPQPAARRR

FH19–20 FH19-20, sequence (P08603 1107-1231): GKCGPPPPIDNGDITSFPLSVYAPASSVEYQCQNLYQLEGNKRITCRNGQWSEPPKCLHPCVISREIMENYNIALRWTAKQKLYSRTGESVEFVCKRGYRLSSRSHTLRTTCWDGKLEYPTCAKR

Substance: FH19–20 FH19-20 (from UniProt P08603)
- Kd: 5 µM
